This passage reports Km and Vmax results from publication PMC7247208, “A cell suspension based uptake method to study high affinity glucosinolate transporters” (Plant Methods, 2020).

Holding throughout (details): pH 5, MSOT3 without nitrate salts, 1 h uptake, transport
Substrate in data set [1]: O=S(=O)(O)O/N=C(/Cc1ccc(O)cc1)S[C@@H]1O[C@H](CO)[C@@H](O)[C@H](O)[C@H]1O
Nature of the data set: cells, lysate or membranes.

Substrate in data set [2]: C=CCC/C(=N\OS(=O)(=O)O)S[C@@H]1O[C@H](CO)[C@@H](O)[C@H](O)[C@H]1O
Nature of the data set: uptake into CCL-1 cotton suspension cells, HPLC of desulfoglucosinolates, Michaelis-Menten fit. It is filed as cell-based, Arabidopsis thaliana.

Substrate in data set [3]: C=CC/C(=N/OS(=O)(=O)O)S[C@@H]1O[C@H](CO)[C@@H](O)[C@H](O)[C@H]1O
The description is as above. It is filed as cell-based, Arabidopsis thaliana.

One may read the Km as the concentration of substrate that gives half-maximal velocity. The term Vmax denotes the rate approached at saturating substrate.

B1: AtGTR2 (Arabidopsis thaliana) (protein)
chain: MERKPLELESTDNHQNPSSAVYGGSVTAVDSVEEDVQNQKKVVYRGWKVMPFIIGNETFEKLGIIGTLSNLLVYLTAVFNLKSITAATIINAFSGTINFGTFVAAFLCDTYFGRYKTLSVAVIACFLGSFVILLTAAVPQLHPAACGTAADSICNGPSGGQIAFLLMGLGFLVVGAGGIRPCNLAFGADQFNPKSESGKRGIDSFFNWYFFTFTFAQILSLTLVVYVQSNVSWTIGLTIPAVLMFLACLIFFAGDKLYVKIKASGSPLAGIAQVIAVAIKKRGLKPAKQPWLNLYNYYPPKYANSKLKYTDQFRFLDKAAILTPEDKLQPDGKPADPWKLCTMQQVEEVKCIVRVLPIWFASSIYYLTITQQMTYPVFQALQSDRRLGSGGFVIPAATYVVFLMTGMTVFIVVYDRVLVPTMRRITGLDTGITLLQRIGTGIFFATASLVVAGFVEERRRTFALTKPTLGMAPRKGEISSMSAMWLIPQLSLAGVAEAFAAIGQMEFYYKQFPENMRSFAGSIFYVGGGVSSYLGSFLIATVHRTTQNSSGGNWLAEDLNKGRLDLFYFMIAGILAVNFAYFLVMSRWYRYKGSDDEVTTYETNENIIKQQDKNVA
notes: full-length CDS from Col-0 leaf cDNA, untagged, pEarleyGate100 (CaMV35S), stably expressed in cotton CCL-1 cells; C-terminal YFP fusion only for localization
As to B1, the Km amounted to 166.7 ± 40 µM in data set [1], 153.3 ± 59 µM in data set [2] and 436.7 ± 154 µM in data set [3]. Besides, the results for the Vmax in data set [1], in data set [2] and in data set [3] were 1.2e-06 µmol/min/mg, 2.9e-06 µmol/min/mg and 4.6e-06 µmol/min/mg, respectively.

B2: AtGTR1 (Arabidopsis thaliana) (protein)
chain: MKSRVILNHRDRRDKNHNNNNTNHYTQVDTMERKPLEVEPSTTTTNTDVVDSFEEEQRKIVYRGWKVMPFIIGNETFEKLGIIGTLSNLLVYLTSVFNLKSYTAATIINAFSGTINFGTFIAAFLCDTYFGRYKTLSVAVIACFLGSFVILLTAAIPSLHPVACGNKISCEGPSVGQILFLLMGLGFLVVGAGGIRPCNLAFGADQFNPKSESGKKGINSFFNWYFFTFTFAQIISLTAVVYIQSNVSWTIGLIIPVALMFLACVIFFAGDRLYVKVKASGSPLAGIARVIAAAIKKRGLKPVKQPWVNLYNHIPSNYANTTLKYTDQFRFLDKAAIMTPEEKLNSDGTASDPWKLCTLQQVEEVKCIVRVIPIWFASTIYYLAITIQMTYPVFQALQSDRRLGSGGFRIPAATYVVFLMTGMTVFIIFYDRVLVPSLRRVTGLETGISLLQRIGAGFTFAIMSLLVSGFIEERRRNFALTKPTLGMAPRTGEISSMSALWLIPQLTLAGIAEAFAAIGQMEFYYKQFPENMKSFAGSIFYVGAGVSSYLASFLISTVHRTTAHSPSGNWLAEDLNKAKLDYFYFMLTGLMVVNMAYFLLMARWYRYKGGNDEDITEIETNEEETKQQQLQDKNSV
notes: as for B1
Regarding B2, the results for the Km in data set [1], in data set [2] and in data set [3] were 104.5 ± 56 µM, 279.1 ± 109 µM and 117.9 ± 44 µM, respectively. Besides, the Vmax in data set [1] amounted to 5e-07 µmol/min/mg; in data set [2], 3.4e-06 µmol/min/mg; in data set [3], 5e-07 µmol/min/mg.
